In the supplement of paper PMC7125110:
± gives the standard error. Fewer inactive variants are shown than the library holds.

B1: glmS ribozyme (parent)
chain: AUAAAAGCGCCAGAACUACAGAAAUGUAGUUGACGAGGAGGAGGUUUAUCGAAUUUUCGGCGGAUGCCUCCAAA

Experiments:
Conditions in all cases: with glucosamine-6-phosphate
glucosamine-6-phosphate [1] = variants of: B1; test: self-cleavage kobs at 640 uM GlcN6P; higher = faster cleavage; RNA array
Method in brief: (§1)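 Weighted Michaelis–Menten fits across concentrations supplied kcat and KM, based on kobs from one- or two-exponential decay fits to normalised per-tile medians. The data came from barcoded ribozyme variants transcribed in situ by E. coli RNA polymerase on sequenced MiSeq chips and tracked at 37 °C by a hybridised Cy3 probe. Glucosamine-6-phosphate (40 μM to 10 mM) in HEPES/KCl/Mg(OAc)2 buffer was flowed in.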

glucosamine-6-phosphate [2] = variants of: B1; test: self-cleavage kobs at 2500 uM GlcN6P; higher = faster cleavage; RNA array
Method in brief: as §1

glucosamine-6-phosphate [3] = variants of: B1; test: self-cleavage kobs at 10000 uM GlcN6P; higher = faster cleavage; RNA array
Method in brief: as §1

Row | Variant | self-cleavage kobs at 640 uM GlcN6P (glucosamine-6-phosphate [1]) | self-cleavage kobs at 2500 uM GlcN6P (glucosamine-6-phosphate [2]) | self-cleavage kobs at 10000 uM GlcN6P (glucosamine-6-phosphate [3])
1 | C11G C34G G59A | < 1e-05 s⁻¹ | < 1e-05 s⁻¹ | –
2 | G9C A53U C70A | < 1e-05 s⁻¹ | – | –
3 | A39U G41U U56G | 6.4e-05 ± 1.9e-05 s⁻¹ | 0.000106 ± 2.3e-05 s⁻¹ | –
4 | C10A A53G C70G | 0.000157 ± 4.8e-05 s⁻¹ | 0.000151 ± 4.6e-05 s⁻¹ | –
5 | C8U A12U G51U | < 1e-05 s⁻¹ | < 1e-05 s⁻¹ | –
6 | U46G C50U C68G | 5.83e-05 ± 2.6e-05 s⁻¹ | – | –
7 | A12U A15U C68G | 8.06e-05 ± 2.7e-05 s⁻¹ | – | –
8 | G13C A33G G40U U49G G63A | < 1e-05 s⁻¹ | – | –
9 | A48G C50G C58G | 0.000184 ± 8.1e-05 s⁻¹ | – | –
10 | A36C G40U U54A G63U | < 1e-05 s⁻¹ | < 1e-05 s⁻¹ | < 1e-05 s⁻¹
11 | G38A G40U G43A A52C | < 1e-05 s⁻¹ | – | –
12 | C8U A15C G35C C68U | < 1e-05 s⁻¹ | – | –
13 | A6G U30G G43C G60U C71G | < 1e-05 s⁻¹ | – | –
14 | G7U G9A G38U | < 1e-05 s⁻¹ | – | –
15 | G43C G51U C61G | < 1e-05 s⁻¹ | < 1e-05 s⁻¹ | –
16 | G29A G32U G40U G44U | < 1e-05 s⁻¹ | < 1e-05 s⁻¹ | –
17 | U55G U56A G60U C71U | < 1e-05 s⁻¹ | – | –

Row | Variant | self-cleavage kobs at 640 uM GlcN6P (glucosamine-6-phosphate [1]) | self-cleavage kobs at 2500 uM GlcN6P (glucosamine-6-phosphate [2]) | self-cleavage kobs at 10000 uM GlcN6P (glucosamine-6-phosphate [3])
18 | C16U U49G | 0.000174 ± 4.8e-05 s⁻¹ | 0.000685 ± 0.00023 s⁻¹ | 0.000387 ± 6.5e-05 s⁻¹
19 | A6U G35C C68G C70U | 0.000713 ± 0.00023 s⁻¹ | – | –
20 | A15C C34U G66C | < 1e-05 s⁻¹ | < 1e-05 s⁻¹ | –
21 | A48U U49A C68A | < 1e-05 s⁻¹ | – | –
22 | A12G U45C C50U | < 1e-05 s⁻¹ | < 1e-05 s⁻¹ | –
23 | C10G G41U U55A C58G G63U | < 1e-05 s⁻¹ | – | –
24 | G7C C10A G13A G37A U45A | < 1e-05 s⁻¹ | < 1e-05 s⁻¹ | –
25 | C8G G32C A33U C67U | < 1e-05 s⁻¹ | < 1e-05 s⁻¹ | –
26 | A15C C16U U56C | 7.03e-05 ± 1.8e-05 s⁻¹ | 0.000249 ± 7.3e-05 s⁻¹ | –
27 | G32U A33G G38A | < 1e-05 s⁻¹ | – | –
28 | G7C U69A C70U | < 1e-05 s⁻¹ | – | –
29 | C10A U31A U56C | < 1e-05 s⁻¹ | < 1e-05 s⁻¹ | < 1e-05 s⁻¹
30 | G29U G41C A42U G63U | < 1e-05 s⁻¹ | – | –
31 | C11U G43A A48U A53C C61U | < 1e-05 s⁻¹ | < 1e-05 s⁻¹ | –
32 | A12G U30A G44A | < 1e-05 s⁻¹ | – | –
33 | G29U A36C G44U | < 1e-05 s⁻¹ | – | < 1e-05 s⁻¹
